The test has as its target T1, mouse integrin αvβ3 on NIH3T3 cells (mouse, UniProt P43406 31-1044; O54890 26-787).
T1 construct: whole, on cells; Presented on NIH3T3 transformants; also called αvβ3 integrin; 3T3/αvβ3
The test is described as follows: cell adhesion assay on PS-coated wells pretreated with D89E. On the procedure:
Peroxidase activity was detected using a peroxidase-detecting kit (Sumitomo Bakelite). To assay the ability of MFG-E8 to link the cells to phospholipids, MFG-E8 was bound to microtiter plates coated with phospholipids as described above. In tyrode buffer containing the cells (4×10⁴) (5 mM Hepes-NaOH buffer [pH 7.4], 135 mM NaCl, 5.4 mM KCl, 1.0 mM MgCl₂, 10 mM glucose, and 10 mg/ml BSA) was added to each well, and incubated at room temperature for 1 hour. The cells that had adhered to the plates were quantified by a CyQUANT Cell Proliferation Assay kit (Molecular Probes) using a fluorescent microplate reader (BioLumin 960, Molecular Dynamics) set at excitation wavelength of 485 nm and emission wavelength of 520 nm.
Therefore, the possibility that MFG-E8-L might bind to integrin-expressing cells after said cells are bound to phospholipids was investigated. Microtiter wells coated with PS or PE were successively incubated with three different concentrations (0.1, 1.0 and 2.0 μg/ml) of MFG-E8-L or D89E, and with NIH3T3 (3T3/WT) or αᵥβ₃ integrin-expressing transformants (3T3/αᵥβ₃), and subjected to cell adhesion assay. The number of cells attached to the wells was quantified as described in the methods described in Example A-6. […] D89E mutant was not capable of intermediating the adhering of NIH3T3 cells to the wells coated with PS. […]

T1 sequence (P43406 31-1044, chain 1 of 2): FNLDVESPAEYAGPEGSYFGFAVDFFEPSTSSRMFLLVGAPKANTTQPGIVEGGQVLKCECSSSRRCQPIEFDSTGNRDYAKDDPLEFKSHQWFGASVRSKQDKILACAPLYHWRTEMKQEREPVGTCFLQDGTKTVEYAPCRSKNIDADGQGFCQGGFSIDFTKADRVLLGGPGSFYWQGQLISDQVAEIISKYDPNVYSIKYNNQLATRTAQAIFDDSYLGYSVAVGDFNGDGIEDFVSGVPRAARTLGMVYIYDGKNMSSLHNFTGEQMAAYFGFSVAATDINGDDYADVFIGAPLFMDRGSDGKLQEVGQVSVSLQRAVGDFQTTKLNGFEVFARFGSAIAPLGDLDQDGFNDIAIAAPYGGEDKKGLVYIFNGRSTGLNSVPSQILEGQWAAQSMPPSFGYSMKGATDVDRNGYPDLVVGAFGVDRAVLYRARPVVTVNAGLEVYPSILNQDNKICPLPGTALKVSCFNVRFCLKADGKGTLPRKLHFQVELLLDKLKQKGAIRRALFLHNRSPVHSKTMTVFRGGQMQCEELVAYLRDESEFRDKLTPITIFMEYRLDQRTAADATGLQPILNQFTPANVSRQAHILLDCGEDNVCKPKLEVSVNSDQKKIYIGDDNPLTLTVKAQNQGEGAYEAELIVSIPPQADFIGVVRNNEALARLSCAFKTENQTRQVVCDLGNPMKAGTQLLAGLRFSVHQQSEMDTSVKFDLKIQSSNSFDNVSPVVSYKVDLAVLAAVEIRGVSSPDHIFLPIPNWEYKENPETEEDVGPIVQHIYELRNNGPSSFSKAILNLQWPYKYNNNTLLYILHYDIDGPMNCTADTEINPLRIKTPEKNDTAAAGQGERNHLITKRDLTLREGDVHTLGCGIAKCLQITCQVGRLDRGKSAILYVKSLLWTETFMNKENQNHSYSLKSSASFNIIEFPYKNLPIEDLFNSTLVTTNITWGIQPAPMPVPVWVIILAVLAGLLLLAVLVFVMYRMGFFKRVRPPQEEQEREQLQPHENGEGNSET
T1 sequence (O54890 26-787, chain 2 of 2): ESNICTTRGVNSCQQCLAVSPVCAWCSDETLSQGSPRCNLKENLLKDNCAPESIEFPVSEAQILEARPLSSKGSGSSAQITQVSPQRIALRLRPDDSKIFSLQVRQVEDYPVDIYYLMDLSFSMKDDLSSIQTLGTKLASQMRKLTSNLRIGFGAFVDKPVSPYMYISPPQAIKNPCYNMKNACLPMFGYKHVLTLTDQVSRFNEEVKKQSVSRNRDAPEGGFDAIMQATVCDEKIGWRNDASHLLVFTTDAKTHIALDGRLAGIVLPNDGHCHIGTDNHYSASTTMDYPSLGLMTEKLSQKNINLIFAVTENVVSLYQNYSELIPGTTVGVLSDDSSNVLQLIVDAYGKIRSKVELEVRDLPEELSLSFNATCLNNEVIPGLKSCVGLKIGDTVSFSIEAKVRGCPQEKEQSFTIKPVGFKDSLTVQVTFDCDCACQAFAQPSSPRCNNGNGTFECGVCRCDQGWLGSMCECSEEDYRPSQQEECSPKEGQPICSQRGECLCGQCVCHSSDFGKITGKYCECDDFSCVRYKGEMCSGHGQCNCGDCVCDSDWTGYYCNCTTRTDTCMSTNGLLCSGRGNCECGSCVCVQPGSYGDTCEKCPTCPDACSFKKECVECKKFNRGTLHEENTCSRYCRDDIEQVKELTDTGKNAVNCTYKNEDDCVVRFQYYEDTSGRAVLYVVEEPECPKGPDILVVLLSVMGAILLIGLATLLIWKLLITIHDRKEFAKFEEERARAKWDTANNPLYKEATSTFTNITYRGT

B1: D89E mutant of mouse MFG-E8-L (ligand)
chain: ASGDFCDSSLCLNGGTCLTGQDNDIYCLCPEGFTGLVCNETERGPCSPNPCYNDAKCLVTLDTQRGEIFTEYICQCPVGYSGIHCETETNYYNLDGEYMFTTAVPNTAVPTPAPTPDLSNNLASRCSTQLGMEGGAIADSQISASSVYMGFMGLQRWGPELARLYRTGIVNAWTASNYDSKPWIQVNLLRKMRVSGVMTQGASRAGRAEYLKTFKVAYSLDGRKFEFIQDESGGDKEFLGNLDNNSLKVNMFNPTLEAQYIRLYPVSCHRGCTLRFELLGCELHGCSEPLGLKNNTIPDSQMSASSSYKTWNLRAFGWYPHLGRLDNQGKINAWTAQSNSAKEWLQVDLGTQRQVTGIITQGARDFGHIQYVASYKVAHSDDGVQWTVYEEQGSSKVFQGNLDNNSHKKNIFEKPFMARYVRVLPVSWHNRITLRLELLGC
notes: Point mutation in the RGD motif of the second EGF domain; Expressed in human 293T cells; also called D89 mutant; not shown: FLAG marker peptide at the C-terminus (derivatives were detected with anti-FLAG)
In the case of B1, the binding result was “no binding (tested: 0.1, 1.0 and 2.0 µg/ml)”.

These data come from patent publication US20060233806A1 (JAPAN SCIENCE AND TECHNOLOGY AGENCY, published 2006).
